Source: patent US20170258835A1

How the values were obtained:
[1] = target: CD19 (UniProt P15391); assay: cell-based or functional assay
[2] = target: EGFRviii (UniProt P00533)
[3] = target: HLA-A2/NY-ESO-1; assay: cell-based or functional assay

CD19, sequence (P15391 20-556 limits assumed): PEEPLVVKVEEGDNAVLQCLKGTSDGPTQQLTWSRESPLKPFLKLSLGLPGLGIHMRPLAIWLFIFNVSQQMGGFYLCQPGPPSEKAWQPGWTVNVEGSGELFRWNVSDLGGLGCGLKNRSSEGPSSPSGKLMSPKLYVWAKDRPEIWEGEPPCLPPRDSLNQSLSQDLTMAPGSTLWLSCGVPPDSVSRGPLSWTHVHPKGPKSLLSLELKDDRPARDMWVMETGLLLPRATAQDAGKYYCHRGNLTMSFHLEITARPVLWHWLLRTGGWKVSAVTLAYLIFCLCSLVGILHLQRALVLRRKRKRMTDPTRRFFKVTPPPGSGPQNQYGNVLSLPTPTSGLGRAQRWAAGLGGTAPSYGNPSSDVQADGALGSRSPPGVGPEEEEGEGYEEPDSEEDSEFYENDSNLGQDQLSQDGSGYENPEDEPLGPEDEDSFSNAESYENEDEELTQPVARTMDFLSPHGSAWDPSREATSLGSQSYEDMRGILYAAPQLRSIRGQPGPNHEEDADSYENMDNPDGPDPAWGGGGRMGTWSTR

In the case of “Blinatumomab (secreted by T cells electroporated with Blinatumomab Bis-RNA) (bispecific antibody)”, the CD107a up-regulation, stimulated with K562-CD19 [1] is reported as 81% and the IFN-gamma ELISA; lowest dose of CD19 mRNA electroporated into K562 that was recognized [1] is reported as 0.001 µg.
MR1-BBZ was tested, and the CD107a+ share of CD8+ T cells after stimulation with K562-EGFRvIII [2] was 51.8%.
NY-ESO-1 (1G4) TCR alpha and beta gave a CD8/CD107a double positive cells, stimulated with Nalm6-ESO (Affi-epsilon co-electroporated, EP3 to EP6) [3] of 49.5 to 53.3%.
